Reference: FireProtDB

B1: Proteinase inhibitor, Q03026 (parent)
chain: MSASAKLSRMVCLLCGFFSTGISMASSLILLSASDLAGQWTLQQDEAPAICHLELRDSEVAEASGYDLGGDTACLTRWLPSEPRAWRPTPAGIALLERGGLTLMLLGRQGEGDYRVQKGDGGQLVLRRATP
B2: Lipase B, P41365 (parent)
chain: MKLLSLTGVAGVLATCVAATPLVKRLPSGSDPAFSQPKSVLDAGLTCQGASPSSVSKPILLVPGTGTTGPQSFDSNWIPLSTQLGYTPCWISPPPFMLNDTQVNTEYMVNAITALYAGSGNNKLPVLTWSQGGLVAQWGLTFFPSIRSKVDRLMAFAPDYKGTVLAGPLDALAVSAPSVWQQTTGSALTTALRNAGGLTQIVPTTNLYSATDEIVQPQVSNSPLDSSYLFNGKNVQAQAVCGPLFVIDHAGSLTSQFSYVVGRSALRSTTGQARSADYGITDCNPLPANDLTPEQKVAAAALLAPAAAAIVAGPKQNCEPDLMPYARPFAVGKRTCSGIVTP
B3: Decorsin, P17350 (parent)
chain: APRLPQCQGDDQEKCLCNKDECPPGQCRFPRGDADPYCE
B4: Ribonuclease HI, P0A7Y4 (parent)
chain: MLKQVEIFTDGSCLGNPGPGGYGAILRYRGREKTFSAGYTRTTNNRMELMAAIVALEALKEHCEVILSTDSQYVRQGITQWIHNWKKRGWKTADKKPVKNVDLWQRLDAALGQHQIKWEWVKGHAGHPENERCDELARAAAMNPTLEDTGYQVEV

Variants of: B1
Conditions: Pseudomonas aeruginosa (strain ATCC 15692 / DSM 22644 / CIP 104116 / JCM 14847 / LMG 12228 / 1C / PRS 101 / PAO1); pH 7.1; 25 °C; GdnHCl; CD; Tris-HCl 50 mM; reversible: yes (75%); structure 2RN4; whole UniProt chain shown

| Variant | ddG of mutation (higher = less stable) [kcal/mol] | unfolding free energy [kcal/mol] |
| --- | --- | --- |
| D35A | -2.7 | 6.5 |

Same assay, conditions: Pseudomonas aeruginosa (strain ATCC 15692 / DSM 22644 / CIP 104116 / JCM 14847 / LMG 12228 / 1C / PRS 101 / PAO1); pH 7.1; Thermal; CD; sodium phosphate 20 mM; NaCl 0.1 M; reversible: yes (75%); structure 2RN4; whole UniProt chain shown

| Variant | Tm [°C] | change of melting temperature, mutant - wild type (higher = more stable) [°C] | unfolding enthalpy (van 't Hoff) [kcal/mol] |
| --- | --- | --- | --- |
| D35A | 81.5 | 17.7 | 84.5 |

Variants of: B2
Conditions: Pseudozyma antarctica; pH 7; Thermal; CD; Tris-HCl 50 mM; reversible: No; structure 1TCA; whole UniProt chain shown

| Variant | Tm [°C] | change of melting temperature, mutant - wild type (higher = more stable) [°C] |
| --- | --- | --- |
| V246D | 55.7 | -2 |
| V235I A306E | 52.1 | -5.6 |
| V235I | 58.5 | 0.8 |

Same assay, conditions: Pseudozyma antarctica; pH 7; Thermal; Differential Scanning Fluorimetry; HEPES 10mM; structure 1TCA; whole UniProt chain shown

| Variant | Tm [°C] | change of melting temperature, mutant - wild type (higher = more stable) [°C] |
| --- | --- | --- |
| N194C F329C | 56.3 | 1.5 |
| A187C K333C | 55.9 | 1.1 |
| Q181C L188C | 46.1 | -8.7 |

Variants of: B3
Conditions: Macrobdella decora; pH 7; Thermal; CD; Na2HPO4 10 mM; reversible: Yes; structure 1DEC; whole UniProt chain shown

| Variant | Tm [°C] | change of melting temperature, mutant - wild type (higher = more stable) [°C] |
| --- | --- | --- |
| P24A | 66.5 | -7.5 |
| P23A | 66.5 | -7.5 |
| P23A P24A | 50 | -24 |

Variants of: B4
Conditions: Escherichia coli (strain K12); pH 3; Thermal; CD; glycine-HCl 10 mM; reversible: yes; structure 2RN2; whole UniProt chain shown

| Variant | Tm [°C] | change of melting temperature, mutant - wild type (higher = more stable) [°C] | unfolding enthalpy (van 't Hoff) [kcal/mol] |
| --- | --- | --- | --- |
| K91R | 49.8 | 0.5 | 119 |
| K91R D94E K95G | 53.8 | 4 | 105 |
| D94E | 49.8 | -1.2 | 95.9 |
| A125T | 50.2 | 0.4 | 96.4 |

Same assay, conditions: Escherichia coli (strain K12); pH 5.5; 49.8 °C; Thermal; CD; Sodium acetate 20 mM; reversible: yes; structure 2RN2; whole UniProt chain shown

| Variant | ddG of mutation (higher = less stable) [kcal/mol] |
| --- | --- |
| K91R | 0 |
| D94E | 0.4 |

Same assay, conditions: Escherichia coli (strain K12); pH 5.5; Thermal; CD; Sodium acetate 20 mM; reversible: yes; structure 2RN2; whole UniProt chain shown

| Variant | Tm [°C] | change of melting temperature, mutant - wild type (higher = more stable) [°C] | unfolding enthalpy (van 't Hoff) [kcal/mol] |
| --- | --- | --- | --- |
| K91R | 52 | 0.1 | 96.2 |
| D94E | 52 | -1.6 | 92.9 |

Same assay, conditions: Escherichia coli (strain K12); pH 3; 49.8 °C; Thermal; CD; glycine-HCl 10 mM; reversible: yes; structure 2RN2; whole UniProt chain shown

| Variant | ddG of mutation (higher = less stable) [kcal/mol] |
| --- | --- |
| K91R D94E K95G | -1.2 |
| A125T | -0.1 |

Same assay, conditions: Escherichia coli (strain K12); pH 5.5; 25 °C; GdnHCl; CD; glycine-HCl 10 mM; reversible: yes; structure 2RN2; whole UniProt chain shown

| Variant | ddG of mutation (higher = less stable) [kcal/mol] | denaturant m value [kcal/mol/M] | denaturant midpoint (higher = more stable) [M] | unfolding free energy [kcal/mol] |
| --- | --- | --- | --- | --- |
| K91R D94E K95G | 0.01 | 4.36 | 2.1 | 9.14 |

Same assay, conditions: Escherichia coli (strain K12); pH 5.5; 52 °C; Thermal; CD; glycine-HCl 10 mM; reversible: yes; structure 2RN2; whole UniProt chain shown

| Variant | ddG of mutation (higher = less stable) [kcal/mol] |
| --- | --- |
| K91R D94E K95G | -1.5 |
| A125T | 0 |

Same assay, conditions: Escherichia coli (strain K12); pH 5.5; Thermal; CD; glycine-HCl 10 mM; reversible: yes; structure 2RN2; whole UniProt chain shown

| Variant | Tm [°C] | change of melting temperature, mutant - wild type (higher = more stable) [°C] | unfolding enthalpy (van 't Hoff) [kcal/mol] |
| --- | --- | --- | --- |
| K91R D94E K95G | 57.6 | 5.6 | 86.8 |
| A125T | 52 | 0 | 88.8 |

Same assay, conditions: Escherichia coli (strain K12); pH 3; 50.1 °C; Thermal; CD; glycine-HCl 10 mM; NaCl 0.1 M; reversible: yes; structure 2RN2; whole UniProt chain shown

| Variant | ddG of mutation (higher = less stable) [kcal/mol] |
| --- | --- |
| G23A | -0.7 |

Same assay, conditions: Escherichia coli (strain K12); pH 3; Thermal; CD; glycine-HCl 10 mM; NaCl 0.1 M; reversible: yes; structure 2RN2; whole UniProt chain shown

| Variant | Tm [°C] | change of melting temperature, mutant - wild type (higher = more stable) [°C] | unfolding enthalpy (van 't Hoff) [kcal/mol] |
| --- | --- | --- | --- |
| G23A | 52.4 | 2.3 | 99.3 |

Same assay, conditions: Escherichia coli (strain K12); pH 5.5; Thermal; CD; Sodium acetate 20 mM; NaCl 0.1 M; reversible: yes; structure 2RN2; whole UniProt chain shown

| Variant | Tm [°C] | change of melting temperature, mutant - wild type (higher = more stable) [°C] | unfolding enthalpy (van 't Hoff) [kcal/mol] |
| --- | --- | --- | --- |
| G23A | 54.5 | 1.8 | 91.8 |
